# Results from article PMC5913336, “True equilibrium measurement of transcription factor-DNA binding affinities using automated polarization microscopy”.
# T1: Bcd homeodomain (Drosophila melanogaster, UniProt P09081-2 77-166)
# T1 sequence: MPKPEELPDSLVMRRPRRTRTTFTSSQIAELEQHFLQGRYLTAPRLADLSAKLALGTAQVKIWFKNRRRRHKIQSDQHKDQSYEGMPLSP
# T2: Bicoid DBD-GST (Bcd) (UniProt P09081 83-170)
# T2 sequence: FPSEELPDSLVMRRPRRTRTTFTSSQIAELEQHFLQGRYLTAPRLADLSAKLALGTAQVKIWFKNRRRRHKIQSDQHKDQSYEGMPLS
# B1: Bcd oligo 33 (dsDNA)
# DNA 1: TCGACGGTAATCCCAA
# DNA 2: TTGGGATTACCGTCGA
# B2: Bcd competitor 17 (A6G) (dsDNA)
# DNA 1: TCGACGGTAGTCCCTA
# DNA 2: TAGGGACTACGGTCGA
# B3: Bcd EMSA 16-mer (dsDNA)
# DNA 1: TCGACCGTAATCCCTA
# DNA 2: TAGGGATTACGGTCGA
# B4: Bcd oligo 5 (dsDNA)
# DNA 1: TCGACTGTAATCCCTA
# DNA 2: TAGGGATTACAGTCGA
# B5: Bcd competitor 11 (T4G) (dsDNA)
# DNA 1: TCGACGGGAATCCCTA
# DNA 2: TAGGGATTCCGGTCGA
# B6: Bcd competitor 20 (T7G) (dsDNA)
# DNA 1: TCGACGGTAAGCCCTA
# DNA 2: TAGGGCTTACGGTCGA
# B7: Bcd competitor 16 (A6C) (dsDNA)
# DNA 1: TCGACGGTACTCCCTA
# DNA 2: TAGGGAGTACGGTCGA
# B8: Bcd oligo 31 (dsDNA)
# DNA 1: TCGACGGTAATCCCCA
# DNA 2: TGGGGATTACCGTCGA
# B9: Bcd oligo 3 (dsDNA)
# DNA 1: TCGAAGGTAATCCCTA
# DNA 2: TAGGGATTACCTTCGA
# B10: Bcd competitor 12 (T4A) (dsDNA)
# DNA 1: TCGACGGAAATCCCTA
# DNA 2: TAGGGATTTCGGTCGA
# B11: Bcd competitor 18 (A6T) (dsDNA)
# DNA 1: TCGACGGTATTCCCTA
# DNA 2: TAGGGAATACGGTCGA
# B12: Bcd competitor 9 (G3A) (dsDNA)
# DNA 1: TCGACGATAATCCCTA
# DNA 2: TAGGGATTATGGTCGA
# B13: Bcd competitor 19 (T7C) (dsDNA)
# DNA 1: TCGACGGTAACCCCTA
# DNA 2: TAGGGGTTACGGTCGA
# B14: Bcd oligo 32 (dsDNA)
# DNA 1: TCGACGGTAATCCCGA
# DNA 2: TCGGGATTACCGTCGA
# How the values were obtained:
# [1] = molecular target: T1, Bcd homeodomain; experiment: FP; 33 mM phosphate pH 7.0, 90 mM NaCl, 0.01% Tween 20, 0.1 mM DTT, 0.5% agarose; room temperature; conditions: tags: N-GST (pGEX-6P-1, kept)
# [2] = molecular target: T2, Bicoid DBD-GST (Bcd); experiment: competitive fluorescence anisotropy (HiP-FA); mean of replicates 45.665, 45.961; HiP-FA: 33 mM phosphate pH 7.0, 90 mM NaCl, 0.01% Tween 20, 0.1 mM DTT, 0.5% agarose; conventional titration and EMSA: 20 mM Tris-acetate pH 7.0, 50 nM (sic) NaCl, 0.01% Tween-20, 0.1 mM DTT; conditions: protein: recombinant; tags: N-terminal GST; blunt, G:G mismatch at position 6
# [3] = molecular target: T2, Bicoid DBD-GST (Bcd); experiment: EMSA; direct titration; HiP-FA: 33 mM phosphate pH 7.0, 90 mM NaCl, 0.01% Tween 20, 0.1 mM DTT, 0.5% agarose; conventional titration and EMSA: 20 mM Tris-acetate pH 7.0, 50 nM (sic) NaCl, 0.01% Tween-20, 0.1 mM DTT; conditions: protein: recombinant; tags: N-terminal GST; label: Cy3; blunt
# [4] = molecular target: T2, Bicoid DBD-GST (Bcd); experiment: competitive fluorescence anisotropy (HiP-FA); mean of replicates 20.981, 21.8595; HiP-FA: 33 mM phosphate pH 7.0, 90 mM NaCl, 0.01% Tween 20, 0.1 mM DTT, 0.5% agarose; conventional titration and EMSA: 20 mM Tris-acetate pH 7.0, 50 nM (sic) NaCl, 0.01% Tween-20, 0.1 mM DTT; conditions: protein: recombinant; tags: N-terminal GST; blunt, G:G mismatch at position 6
# [5] = molecular target: T2, Bicoid DBD-GST (Bcd); experiment: competitive fluorescence anisotropy (HiP-FA); mean of replicates 19.276, 18.3665; HiP-FA: 33 mM phosphate pH 7.0, 90 mM NaCl, 0.01% Tween 20, 0.1 mM DTT, 0.5% agarose; conventional titration and EMSA: 20 mM Tris-acetate pH 7.0, 50 nM (sic) NaCl, 0.01% Tween-20, 0.1 mM DTT; conditions: protein: recombinant; tags: N-terminal GST; blunt, G:G mismatch at position 6
# [6] = molecular target: T2, Bicoid DBD-GST (Bcd); experiment: competitive fluorescence anisotropy (HiP-FA); mean of replicates 143.671, 148.3805; HiP-FA: 33 mM phosphate pH 7.0, 90 mM NaCl, 0.01% Tween 20, 0.1 mM DTT, 0.5% agarose; conventional titration and EMSA: 20 mM Tris-acetate pH 7.0, 50 nM (sic) NaCl, 0.01% Tween-20, 0.1 mM DTT; conditions: protein: recombinant; tags: N-terminal GST; blunt, G:G mismatch at position 6
# [7] = molecular target: T2, Bicoid DBD-GST (Bcd); experiment: competitive fluorescence anisotropy (HiP-FA); mean of replicates 13.103, 12.6865; HiP-FA: 33 mM phosphate pH 7.0, 90 mM NaCl, 0.01% Tween 20, 0.1 mM DTT, 0.5% agarose; conventional titration and EMSA: 20 mM Tris-acetate pH 7.0, 50 nM (sic) NaCl, 0.01% Tween-20, 0.1 mM DTT; conditions: protein: recombinant; tags: N-terminal GST; blunt, G:G mismatch at position 6
# [8] = molecular target: T2, Bicoid DBD-GST (Bcd); experiment: competitive fluorescence anisotropy (HiP-FA); mean of replicates 133.924, 123.07; HiP-FA: 33 mM phosphate pH 7.0, 90 mM NaCl, 0.01% Tween 20, 0.1 mM DTT, 0.5% agarose; conventional titration and EMSA: 20 mM Tris-acetate pH 7.0, 50 nM (sic) NaCl, 0.01% Tween-20, 0.1 mM DTT; conditions: protein: recombinant; tags: N-terminal GST; blunt, G:G mismatch at position 6
# [9] = molecular target: T2, Bicoid DBD-GST (Bcd); experiment: competitive fluorescence anisotropy (HiP-FA); mean of replicates 3.766, 3.8365; HiP-FA: 33 mM phosphate pH 7.0, 90 mM NaCl, 0.01% Tween 20, 0.1 mM DTT, 0.5% agarose; conventional titration and EMSA: 20 mM Tris-acetate pH 7.0, 50 nM (sic) NaCl, 0.01% Tween-20, 0.1 mM DTT; conditions: protein: recombinant; tags: N-terminal GST; blunt, G:G mismatch at position 6
# [10] = molecular target: T2, Bicoid DBD-GST (Bcd); experiment: competitive fluorescence anisotropy (HiP-FA); mean of replicates 94.126, 94.115; HiP-FA: 33 mM phosphate pH 7.0, 90 mM NaCl, 0.01% Tween 20, 0.1 mM DTT, 0.5% agarose; conventional titration and EMSA: 20 mM Tris-acetate pH 7.0, 50 nM (sic) NaCl, 0.01% Tween-20, 0.1 mM DTT; conditions: protein: recombinant; tags: N-terminal GST; blunt, G:G mismatch at position 6
# [11] = printed reverse strand differs at base 6 of strand 1 (G / C), complement of the forward strand used
binder,measurement,setting,value
B1,Kd,[1]; [11],4.71 nM
B2,Kd,[2],45.8 nM
B3,Kd,[3],1.8 ± 0.2 nM
B4,Kd,[1],6.66 nM
B5,Kd,[4],21.4 nM
B6,Kd,[5],18.8 nM
B7,Kd,[6],146 nM
B8,Kd,[1]; [11],3.8 nM
B9,Kd,[1]; [11],3.76 nM
B10,Kd,[7],12.9 nM
B11,Kd,[8],128 nM
B12,Kd,[9],3.8 nM
B13,Kd,[10],94.1 nM
B14,Kd,[1]; [11],5.08 nM
